From article PMC8062120
Changes are numbered by the printed parent chain. Names may count otherwise. Each block holds one binder with its values, some of them ahead of it.

Experiments:
[1] = target: F-actin (rabbit skeletal muscle actin, polymerized), P68135; experiment: F-actin co-sedimentation assay; details: chain shown with the change; for response: 8 μM protein, percentage of theoretical total binding (100%), parent: est. 95, read off a plot
[2] = target: T1, F-actin (rabbit skeletal muscle actin, polymerized) (rabbit), P68135; experiment: co-sedimentation; F-actin co-sedimentation, conditions B1 (HEPES pH 7.4); fixed 16 μM myotilin construct in 20 μl mixed with pre-polymerized F-actin (0–120 μM) in 20 μl; room temperature 30 min, 125,000 × g; densitometry, one site-specific binding fit; apparent Kd; details: remark: other sources report otherwise
[3] = target: T1, F-actin (rabbit skeletal muscle actin, …); experiment: co-sedimentation; F-actin co-sedimentation, conditions B2 (PIPES pH 6.8, 100 mM NaCl); fixed 6 μM myotilin fragment in 20 μl mixed with pre-polymerized F-actin (0 to 60 μM) in 20 μl; one site-specific binding fit; apparent Kd; details: remark: other sources report otherwise

B1: Myotilin Ig1Ig2^250–444 (Ig1Ig2 tandem), Q9UBF9 K359A (protein)
chain: PRFIQVPENMSIDEGRFCRMDFKVSGLPAPDVSWYLNGRTVQSDDLHKMIVSEKGLHSLIFEVVRASDAGAYACVAKNRAGEATFTVQLDVLAKEHKRAPMFIYKPQSKAVLEGDSVKLECQISAIPPPKLFWKRNNEMVQFNTDRISLYQDNTGRVTLLIKDVNKKDAGWYTVSAVNEAGVTTCNTRLDVTARP
response [1]: 72 % bound

B4: Myotilin Ig1Ig2^250–444 (Ig1Ig2 tandem), Q9UBF9 Q356A (protein)
chain: B1 chain with Q107A, A110K
response [1]: 94 % bound

B6: Myotilin Ig1Ig2^250–444 (Ig1Ig2 tandem), Q9UBF9 K367A (protein)
chain: B1 chain with A110K, K118A
response [1]: 87 % bound

B8: Myotilin Ig1Ig2^250–444 (Ig1Ig2 tandem), Q9UBF9 K358A (protein)
chain: B1 chain with K109A, A110K
response [1]: 80 % bound

B9: Myotilin Ig1Ig2^250–444 (Ig1Ig2 tandem), Q9UBF9 K354A (protein)
chain: B1 chain with K105A, A110K
response [1]: 55 % bound

B10: Full-length myotilin with N-terminal thioredoxin tag (Trx-MYOT), Q9UBF9 1-498 (natural protein)
chain: MFNYERPKHFIQSQNPCGSRLQPPGPETSSFSSQTKQSSIIIQPRQCTEQRFSASSTLSSHITMSSSAFPASPQQHAGSNPGQRVTTTYNQSPASFLSSILPSQPDYNSSKIPSAMDSNYQQSSAGQPINAKPSQTANAKPIPRTPDHEIQGSKEALIQDLERKLKCKDTLLHNGNQRLTYEEKMARRLLGPQNAAAVFQAQDDSGAQDSQQHNSEHARLQVPTSQVRSRSTSRGDVNDQDAIQEKFYPPRFIQVPENMSIDEGRFCRMDFKVSGLPAPDVSWYLNGRTVQSDDLHKMIVSEKGLHSLIFEVVRASDAGAYACVAKNRAGEATFTVQLDVLAKEHKRAPMFIYKPQSKKVLEGDSVKLECQISAIPPPKLFWKRNNEMVQFNTDRISLYQDNTGRVTLLIKDVNKKDAGWYTVSAVNEAGVTTCNTRLDVTARPNQTLPAPKQLRVRPTFSKYLALNGKGLNVKQAFNPEGEFQRLAAQSGLYESEEL
Kd [3]: 0.29 µM

Other lines, results leading:

response [1]: 87 % bound
B2: Myotilin Ig1Ig2^250–444 (Ig1Ig2 tandem), Q9UBF9 K411A (protein)
chain: B1 chain with A110K, K162A

Kd ([1]; B1 conditions (asterisk)): 7.5 µM
B3: Myotilin Ig1Ig2^250–444 (Ig1Ig2 tandem), Q9UBF9 R405K (protein)
chain: B1 chain with A110K, R156K

response [1]: 42 % bound
B5: Myotilin Ig1Ig2^250–444 (Ig1Ig2 tandem), Q9UBF9 K354A; K359A (protein)
chain: B1 chain with K105A

Kd [2]: 9.2 µM
Kd [3]: 12.9 µM
B7: Myotilin Ig1Ig2^250–444 (Ig1Ig2 tandem), Q9UBF9 250-444 (domain or fragment)
chain: B1 chain with A110K
